From publication PMC4283134, “Nup98 FG domains from diverse species spontaneously phase-separate into particles with nuclear pore-like permselectivity” (eLife, 2015)

Target: T1, Saccharomyces cerevisiae Importin β (Kap95p) (S. cerevisiae, UniProt Q06142 1-861)
T1 sequence (looked up): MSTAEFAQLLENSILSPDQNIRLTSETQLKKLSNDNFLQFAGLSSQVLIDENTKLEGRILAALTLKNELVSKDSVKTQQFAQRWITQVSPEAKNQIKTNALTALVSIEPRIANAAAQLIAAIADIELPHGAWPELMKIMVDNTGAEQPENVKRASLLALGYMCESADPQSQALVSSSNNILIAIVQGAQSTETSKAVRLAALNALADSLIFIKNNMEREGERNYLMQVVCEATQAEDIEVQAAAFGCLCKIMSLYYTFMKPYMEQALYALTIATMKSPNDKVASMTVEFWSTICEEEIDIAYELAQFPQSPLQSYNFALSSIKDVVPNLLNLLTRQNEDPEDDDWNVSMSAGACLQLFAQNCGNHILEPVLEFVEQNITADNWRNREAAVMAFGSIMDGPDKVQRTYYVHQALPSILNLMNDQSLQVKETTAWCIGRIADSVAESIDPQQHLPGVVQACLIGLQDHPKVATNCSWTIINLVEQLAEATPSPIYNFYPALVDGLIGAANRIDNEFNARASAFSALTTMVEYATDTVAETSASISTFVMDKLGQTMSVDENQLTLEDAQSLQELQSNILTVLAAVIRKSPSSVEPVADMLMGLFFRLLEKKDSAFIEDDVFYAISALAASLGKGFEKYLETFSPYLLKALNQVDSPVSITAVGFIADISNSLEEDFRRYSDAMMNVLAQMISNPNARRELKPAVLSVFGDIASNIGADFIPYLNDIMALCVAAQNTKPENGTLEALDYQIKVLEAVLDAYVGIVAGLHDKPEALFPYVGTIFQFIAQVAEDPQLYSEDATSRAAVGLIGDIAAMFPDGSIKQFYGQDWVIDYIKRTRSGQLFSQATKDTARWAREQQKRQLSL
Experiment: NTR⋅cargo complex formed from purified proteins, followed by the fluorescent cargo's entry into FG particles (confocal microscopy); 1 µM complex (referring to substrate monomers) added to FG particles; no separate test of complex formation is described
Details: both partners purified

B1: Atto488-labelled IBB domain of S. cerevisiae Srp1p (domain or fragment)
chain: DNGTDSSTSKFVPEYRRTNFKNKGRFSADELRRRRDTQQVELRKAKRDEALAKRRNFIPPTDC
modifications: also: Atto488 label, position not given here
notes: IBB domain of Srp1p (importin α), S. cerevisiae, residues 2-63; C-terminal cysteine of the construct; The label probably sits on the C-terminal cysteine; also called ScIBB; IBB-Atto488; source: E. coli (BLR or NEB Express), purified (native Ni(II) chelate chromatography, tag removed); not shown: His14, N-terminal, cleaved; ZZ, N-terminal, cleaved; brNEDD8, N-terminal, cleaved
binding result: binds
